In patent US20100112602A1 (published 2010):

Target: T1, GFP-rev-p53 biosensor
T1 construct: also called rev-p53-GFP; NLS-p53-GFP construct
Test: co-localization of fluorescent biosensor components co-expressed in U2OS cells

B1: TagGFP-NES/NLS-HDM2 biosensor (other)
chain: MVSKGEELIKENMHMKLYMEGTVNNHHFKCTSEGEGKPYEGTQTMRIKVVEGGPLPFAFDILATSFMYGSRTFINHTQGIPDFFKQSFPEGFTWERVTTYEDGGVLTATQDTSLQDGCLIYNVKIRGVNFPSNGPVMQKKTLGWEANTEMLYPADGGLEGRSDMALKLVGGGHLICNFKTTYRSKKPAKNLKMPGVYYVDHRLERIKEADKETYVEQHEVAVARYCDLPSKLGHKLNSGLRSRAQASNSPQTPLHTSRVLKEDKERWEDVKEEMTSALATMCVDYEQIKIKKIEDASNPLLLKRRKKLEMCNTNMSVPTDGAVTTSQIPASEQETLVRPKPLLLKLLKSVGAQKDTYTMKEVLFYLGQYIMTKRLYDEKQQHIVYCSNDLLGDLFGVPSFSVKEHRKIYTMIYRNLVVVNQQESSDS
notes: also called NES/NLS-HDM2-RFP; shuttling component
- binding result: binds
